Data on 1 molecule can be found in patent US20040105862A1.

In assay [1] the target is mouse TIMP-1 (mouse) (UniProt P12032). The assay can be described thus: BIAcore SPR. On the technique in general: SPR reads the build-up and loss of mass on a sensor chip optically.
Assay [2] has the same target. Put plainly: BIAcore SPR, immobilised mouse TIMP-1.

Chain of mouse TIMP-1 (mouse) (P12032 25-205 limits assumed): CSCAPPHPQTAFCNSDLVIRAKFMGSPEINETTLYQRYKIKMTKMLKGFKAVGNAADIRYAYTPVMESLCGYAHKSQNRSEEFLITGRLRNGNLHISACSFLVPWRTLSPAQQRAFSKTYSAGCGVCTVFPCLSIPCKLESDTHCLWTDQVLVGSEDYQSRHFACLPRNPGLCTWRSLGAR

B1: MS-BW-17-1 Fab (Fab, V domains shown)
VH: QVQLVQSGAEVKKPGESLKISCKGSGYSFTSYWIGWVRQMPGKGLEWMGIIYPGDSDTRYSPSFQGQVTISADKSISTAYLQWSSLKASDTAMYYCARLTNYFDSIYYDHWGQGTLVTVSS
VL: DIALTQPASVSGSPGQSITISCTGTSSDVGGYNYVSWYQQHPGKAPKLMIYDVSNRPSGVSNRFSGSKSGNTASLTISGLQAEDEADYYCQAFDVAPNGKVFGGGTKLTVLG
In turn, B1 had a fold weaker than the affinity to rat TIMP-1 with mouse TIMP-1 (mouse) [1] of 225 fold. In the assay with mouse TIMP-1 (mouse) [2], this molecule had a Kd of 180 nM.

The term Kd denotes a measure of binding affinity in units of concentration. Read a low Kd as higher affinity.
